Laboratory results from patent US20060035242A1.
Where two headings read alike, the source gives them in different places.

Legend:
[1] = molecular target: T1, mouse pathogenic prion protein PrP^Sc (RML, in infected Balb-c mouse brain homogenate) (mouse), P04925; assay: bead pull-down from PrPSc+ mouse brain homogenate; ELISA
[2] = molecular target: T1, mouse pathogenic prion protein PrP^Sc …

T1 sequence (P04925 23-230 limits assumed): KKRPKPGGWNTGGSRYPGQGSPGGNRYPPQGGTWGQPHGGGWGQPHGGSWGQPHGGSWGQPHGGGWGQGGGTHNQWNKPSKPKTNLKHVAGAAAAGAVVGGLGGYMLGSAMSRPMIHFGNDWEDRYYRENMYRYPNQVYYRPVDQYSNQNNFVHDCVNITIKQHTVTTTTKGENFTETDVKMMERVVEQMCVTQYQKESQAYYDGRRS

B1: peptide reagent of SEQ ID NO:56 (peptide)
peptide: GGGAGAAAAGAVVGGLGG
modifications: not checked
[1]
  ELISA A405 nm: 0.313 A405 nm

B2: peptide reagent of SEQ ID NO:65 (peptide)
peptide: KKKAGAAAAGAVVGGLGG
modifications: not checked
[1]
  ELISA A405 nm: 0.635 A405 nm

B3: peptide reagent of SEQ ID NO:98 (peptide)
peptide: GGGKKRAKAGG
modifications: not checked
[1]
  ELISA A405 nm: 1.46 A405 nm

B4: peptide reagent of SEQ ID NO:72 (tandem repeat) (peptide)
peptide: GGGKKRPKPGGGKKRPKPGG
modifications: not checked
[1]
  ELISA A405 nm: 0.522 A405 nm

B5: peptide reagent of SEQ ID NO:105 (peptide)
peptide: GGGKARPKPGG
modifications: not checked
[2]
  ELISA A405 nm: 0.256 A405 nm

B6: peptide reagent of SEQ ID NO:80 (peptide)
peptide: GGGKPSKPK
modifications: not checked
[1]
  ELISA A405 nm: 0.225 A405 nm

B7: peptide reagent of SEQ ID NO:106 (peptide)
peptide: GGGKKAPKPGG
modifications: not checked
[2]
  ELISA A405 nm: 0.268 A405 nm

B8: peptide reagent of SEQ ID NO:73 (peptide)
peptide: GGGGPKRKGPK
modifications: not checked
[1]
  ELISA A405 nm: 1.06 A405 nm

B9: peptide reagent of SEQ ID NO:79 (peptide)
peptide: GGGNKPSKPK
modifications: not checked
[1]
  ELISA A405 nm: 0.24 A405 nm

B10: peptide reagent of SEQ ID NO:85 (peptide)
peptide: GGGKKKKKKKK
modifications: not checked
[1]
  ELISA A405 nm: 0.53 A405 nm

B11: peptide reagent of SEQ ID NO:107 (peptide)
peptide: GGGKKRPAPGG
modifications: not checked
[2]
  ELISA A405 nm: 0.578 A405 nm
